B1: DNA excision repair protein ERCC-1 (Homo sapiens), P07992-3 (parent)
chain: MDPGKDKEGVPQPSGPPARKKFVIPLDEDEVPPGVAKPLFRSTQSLPTVDTSAQAAPQTYAEYAISQPLEGAGATCPTGSEPLAGETPNQALKPGAKSNSIIVSPRQRGNPVLKFVRNVPWEFGDVIPDYVLGQSTCALFLSLRYHNLHPDYIHGRLQSLGKNFALRVLLVQVDVKDPQQALKELAKMCILADCTLILAWSPEEAGRYLETYKAYEQKPADLLMEKLEQDFVSRVTECLTTVKSVNKTDSQTLLTTFGSLEQLIAASREDLALCPGLGPQKVRALGKNPRSWGKERAPNKHNLRPQSFKVKKEPKTRHSGFRL
partner: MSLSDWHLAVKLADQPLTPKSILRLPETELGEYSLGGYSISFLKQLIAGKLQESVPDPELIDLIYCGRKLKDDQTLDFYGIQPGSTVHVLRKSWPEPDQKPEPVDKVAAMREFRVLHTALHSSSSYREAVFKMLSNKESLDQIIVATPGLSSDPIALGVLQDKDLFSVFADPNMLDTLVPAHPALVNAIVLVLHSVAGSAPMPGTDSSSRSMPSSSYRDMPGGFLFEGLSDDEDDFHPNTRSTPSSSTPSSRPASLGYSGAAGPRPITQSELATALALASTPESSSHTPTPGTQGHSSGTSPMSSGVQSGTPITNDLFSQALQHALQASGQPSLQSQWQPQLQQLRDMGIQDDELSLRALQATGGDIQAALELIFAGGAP
B2: Fibulin-5 (Homo sapiens), Q9UBX5 (parent)
chain: MPGIKRILTVTILALCLPSPGNAQAQCTNGFDLDRQSGQCLDIDECRTIPEACRGDMMCVNQNGGYLCIPRTNPVYRGPYSNPYSTPYSGPYPAAAPPLSAPNYPTISRPLICRFGYQMDESNQCVDVDECATDSHQCNPTQICINTEGGYTCSCTDGYWLLEGQCLDIDECRYGYCQQLCANVPGSYSCTCNPGFTLNEDGRSCQDVNECATENPCVQTCVNTYGSFICRCDPGYELEEDGVHCSDMDECSFSEFLCQHECVNQPGTYFCSCPPGYILLDDNRSCQDINECEHRNHTCNLQQTCYNLQGGFKCIDPIRCEEPYLRISDNRCMCPAENPGCRDQPFTILYRDMDVVSGRSVPADIFQMQATTRYPGAYYIFQIKSGNEGREFYMRQTGPISATLVMTRPIKGPREIQLDLEMITVNTVINFRGSSVIRLRIYVSQYPF
B3: Fructose-bisphosphate aldolase A (Homo sapiens), P04075-2 (parent)
chain: MARRKPEGSSFNMTHLSMAMAFSFPPVASGQLHPQLGNTQHQTELGKELATTSTMPYQYPALTPEQKKELSDIAHRIVAPGKGILAADESTGSIAKRLQSIGTENTEENRRFYRQLLLTADDRVNPCIGGVILFHETLYQKADDGRPFPQVIKSKGGVVGIKVDKGVVPLAGTNGETTTQGLDGLSERCAQYKKDGADFAKWRCVLKIGEHTPSALAIMENANVLARYASICQQNGIVPIVEPEILPDGDHDLKRCQYVTEKVLAAVYKALSDHHIYLEGTLLKPNMVTPGHACTQKFSHEEIAMATVTALRRTVPPAVTGITFLSGGQSEEEASINLNAINKCPLLKPWALTFSYGRALQASALKAWGGKKENLKAAQEEYVKRALANSLACQGKYTPSGQAGAAASESLFVSNHAY
partner: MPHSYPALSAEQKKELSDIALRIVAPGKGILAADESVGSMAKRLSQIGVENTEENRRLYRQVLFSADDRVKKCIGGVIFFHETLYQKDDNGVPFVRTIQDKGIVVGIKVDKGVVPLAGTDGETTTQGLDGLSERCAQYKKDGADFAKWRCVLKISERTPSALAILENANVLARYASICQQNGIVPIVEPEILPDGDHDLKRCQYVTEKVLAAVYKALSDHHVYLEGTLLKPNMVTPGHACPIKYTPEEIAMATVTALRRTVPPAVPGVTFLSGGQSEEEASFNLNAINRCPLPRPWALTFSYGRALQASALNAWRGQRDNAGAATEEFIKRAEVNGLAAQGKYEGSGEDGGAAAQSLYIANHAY
B4: Beta-crystallin A4 (Homo sapiens), P53673 (parent)
chain: MTLQCTKSAGPWKMVVWDEDGFQGRRHEFTAECPSVLELGFETVRSLKVLSGAWVGFEHAGFQGQQYILERGEYPSWDAWGGNTAYPAERLTSFRPAACANHRDSRLTIFEQENFLGKKGELSDDYPSLQAMGWEGNEVGSFHVHSGAWVCSQFPGYRGFQYVLECDHHSGDYKHFREWGSHAPTFQVQSIRRIQQ
partner: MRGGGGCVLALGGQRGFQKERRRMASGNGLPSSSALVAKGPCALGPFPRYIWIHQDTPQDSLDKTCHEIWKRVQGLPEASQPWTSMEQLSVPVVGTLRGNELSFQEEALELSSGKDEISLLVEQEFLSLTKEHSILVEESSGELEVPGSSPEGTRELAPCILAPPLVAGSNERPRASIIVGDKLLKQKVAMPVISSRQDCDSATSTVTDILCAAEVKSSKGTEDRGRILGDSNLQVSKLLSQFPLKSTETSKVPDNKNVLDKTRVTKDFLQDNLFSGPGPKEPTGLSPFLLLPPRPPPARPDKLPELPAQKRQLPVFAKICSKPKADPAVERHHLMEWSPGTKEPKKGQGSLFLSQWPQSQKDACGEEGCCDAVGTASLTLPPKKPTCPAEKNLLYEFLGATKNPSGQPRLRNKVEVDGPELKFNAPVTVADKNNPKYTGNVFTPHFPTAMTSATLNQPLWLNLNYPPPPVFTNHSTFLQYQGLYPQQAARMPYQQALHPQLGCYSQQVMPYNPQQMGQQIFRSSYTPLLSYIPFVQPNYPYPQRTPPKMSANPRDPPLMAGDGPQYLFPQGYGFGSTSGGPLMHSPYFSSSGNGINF
B5: Chorion-specific transcription factor GCMb (Homo sapiens), O75603 (parent)
chain: MPAAAVQEAVGVCSYGMQLSWDINDPQMPQELALFDQFREWPDGYVRFIYSSDEKKAQRHLSGWAMRNTNNHNGHILKKSCLGVVVCTQACTLPDGSRLQLRPAICDKARLKQQKKACPNCHSALELIPCRGHSGYPVTNFWRLDGNAIFFQAKGVHDHPRPESKSETEARRSAIKRQMASFYQPQKKRIRESEAEENQDSSGHFSNIPPLENPEDFDIVTETSFPIPGQPCPSFPKSDVYKATCDLATFQGDKMPPFQKYSSPRIYLPRPPCSYELANPGYTNSSPYPTLYKDSTSIPNDTDWVHLNTLQCNVNSYSSYERSFDFTNKQHGWKPALGKPSLVERTNHGQFQAMATRPYYNPELPCRYLTTPPPGAPALQTVITTTTKVSYQAYQPPAMKYSDSVREVKSLSSCNYAPEDTGMSVYPEPWGPPVTVTRAASPSGPPPMKIAGDCRAIRPTVAIPHEPVSSRTDEAETWDVCLSGLGSAVSYSDRVGPFFTYNNEDF
partner: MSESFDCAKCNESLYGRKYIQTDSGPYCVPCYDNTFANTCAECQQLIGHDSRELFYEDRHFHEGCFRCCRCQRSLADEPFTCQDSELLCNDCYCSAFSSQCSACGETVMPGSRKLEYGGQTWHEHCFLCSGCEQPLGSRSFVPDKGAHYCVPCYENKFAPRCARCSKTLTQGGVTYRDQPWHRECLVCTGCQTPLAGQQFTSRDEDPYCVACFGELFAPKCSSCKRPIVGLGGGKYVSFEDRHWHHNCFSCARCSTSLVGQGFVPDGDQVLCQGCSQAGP

Variants of: B1
Settings: with ubl7_human UBL7, Q96S82
F231L was tested, and the “effect of a mutation on the interaction” value was “with no effect”.

Variants of: B2
Settings: with otx1_human OTX1, P32242
otx1_human OTX1, P32242, sequence (P32242 whole entry): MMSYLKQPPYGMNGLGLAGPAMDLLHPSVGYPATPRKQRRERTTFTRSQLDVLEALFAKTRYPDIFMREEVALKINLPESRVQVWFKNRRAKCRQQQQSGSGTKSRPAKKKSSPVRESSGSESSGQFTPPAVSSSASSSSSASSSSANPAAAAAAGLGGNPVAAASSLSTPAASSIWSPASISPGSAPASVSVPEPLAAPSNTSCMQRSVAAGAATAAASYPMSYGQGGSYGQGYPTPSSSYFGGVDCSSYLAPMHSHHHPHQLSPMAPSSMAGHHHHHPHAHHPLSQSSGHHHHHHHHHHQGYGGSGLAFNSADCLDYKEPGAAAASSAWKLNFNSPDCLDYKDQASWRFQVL
With V60L the “effect of a mutation on the interaction” value was “disrupting interaction strength”.

Variants of: B2
Settings: with meox2_human MEOX2, P50222
meox2_human MEOX2, P50222, sequence (P50222 whole entry): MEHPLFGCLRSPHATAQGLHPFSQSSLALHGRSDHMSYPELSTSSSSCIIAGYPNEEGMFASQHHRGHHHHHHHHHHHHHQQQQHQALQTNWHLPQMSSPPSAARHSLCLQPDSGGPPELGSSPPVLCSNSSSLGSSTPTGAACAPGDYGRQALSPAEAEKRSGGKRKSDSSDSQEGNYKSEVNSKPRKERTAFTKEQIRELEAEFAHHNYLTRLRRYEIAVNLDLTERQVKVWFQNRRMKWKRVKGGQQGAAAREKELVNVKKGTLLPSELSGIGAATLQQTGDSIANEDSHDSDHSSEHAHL
With V60L the “effect of a mutation on the interaction” value was “disrupting interaction strength”.

Variants of: B3
Settings: with aldoc_human ALDOC
In the case of D183G, the “effect of a mutation on the interaction” value is reported as “with no effect”. In the case of E261K, the “effect of a mutation on the interaction” value is reported as “disrupting interaction strength”. With C393Y the “effect of a mutation on the interaction” value was “with no effect”.

Variants of: B4
Settings: with ca094_human C1orf94, Q6P1W5
For V36M, the “effect of a mutation on the interaction” value was “disrupting interaction strength”. For L69P, the “effect of a mutation on the interaction” value was “disrupting interaction strength”. In the case of F94S, the “effect of a mutation on the interaction” value is reported as “disrupting interaction strength”.

Variants of: B5
Settings: with fhl3_human FHL3, Q13643
For G203S, the “effect of a mutation on the interaction” value was “with no effect”.

Reference: IntAct's records for PubMed 25910212
